The values below come from article PMC9170038.

Series [1] deals with Theophylline aptamer, Light-up construct (RNA, aptamer) GGGAACGUCUCCGAGUAGGAGACGAAGGGAGAGUGGCAGCUUACAACCUGAAGGACGGGUCCCCAGUAAUAAUGAUACCAGGAACAAAAGUUCCCCUUGGCAGCAUCUGGGUUGAGUAGAGUGUGAGCAGGAAGUGGGCUGUUGCUUUUCCAAGCUUAUCGAGUAGAUAAGCAAAAAGAAACAACAACAACAAC
Kind of series: DMS chemical mapping. Conditions: 5 mM MgCl2, 1x PBS, pH 6.1, 24 °C.

In series [2] the test system is Theophylline aptamer, RNA-MaP condition construct (RNA, aptamer) GGAAAGGCGAGGAUACCAGCGUUCGCGCCCUUGGCAGCCUCGCCAAAGAAACAACAACAACAAC
The experiment in a line: DMS chemical mapping. The conditions noted are these: 80 mM KCl, 4 mM MgCl2; 100 mM Tris-HCl, pH 7.5, 37 °C.

Series [3] deals with T1, MS2 coat protein, dlFG mutant (Escherichia phage MS2, UniProt P03612, del68-81insG). Kind of series: 4 mM Mg2+; no ligand; RNA-MaP array; 100 mM Tris-HCl pH 7.5, 80 mM KCl, 4 mM MgCl2, 0.1 mg/mL BSA, 1 mM DTT, 0.01 mg/mL yeast tRNA, 0.01% Tween-20; protein 1.5 nM to 3 uM; 37 C (Table S3). Conditions: chain copies: 2; label: tethered by stalled RNA polymerase.
Series [4] deals with T1, MS2 coat protein, dlFG mutant. The experiment in a line: 4 mM Mg2+; L-tryptophan 2.4 mM; RNA-MaP array; 100 mM Tris-HCl pH 7.5, 80 mM KCl, 4 mM MgCl2, 0.1 mg/mL BSA, 1 mM DTT, 0.01 mg/mL yeast tRNA, 0.01% Tween-20; protein 1.5 nM to 3 uM; 37 C (Table S3). The conditions noted are these: chain copies: 2; label: tethered by stalled RNA polymerase.
Series [5] shares this target. The experiment in a line: 4 mM Mg2+; theophylline 2 mM; RNA-MaP array; 100 mM Tris-HCl pH 7.5, 80 mM KCl, 4 mM MgCl2, 0.1 mg/mL BSA, 1 mM DTT, 0.01 mg/mL yeast tRNA, 0.01% Tween-20; protein 1.5 nM to 3 uM; 37 C (Table S3). Conditions: chain copies: 2; label: tethered by stalled RNA polymerase.
Series [6] shares this target. Kind of series: 4 mM Mg2+; FMN 200 uM; RNA-MaP array; 100 mM Tris-HCl pH 7.5, 80 mM KCl, 4 mM MgCl2, 0.1 mg/mL BSA, 1 mM DTT, 0.01 mg/mL yeast tRNA, 0.01% Tween-20; protein 1.5 nM to 3 uM; 37 C (Table S3). Conditions: chain copies: 2; label: tethered by stalled RNA polymerase.
The target is the same in series [7]. The experiment in a line: 4 mM Mg2+; miR-208a RNA 100 nM (AU…UUGU); RNA-MaP array; 100 mM Tris-HCl pH 7.5, 80 mM KCl, 4 mM MgCl2, 0.1 mg/mL BSA, 1 mM DTT, 0.01 mg/mL yeast tRNA, 0.01% Tween-20; protein 1.5 nM to 3 uM; 37 C (Table S3). Conditions: chain copies: 2; label: tethered by stalled RNA polymerase.

Usually Kd stands for the constant that tells how readily two partners part at equilibrium. A higher Kd goes with a looser complex. Turning to `Cn1c(=O)c2[nH]cnc2n(C)c1=O`, the figures for the Kd in series [1] and in series [2] were 239.54 ± 161.15/-96.27 μM and 13.11 ± 9.21/-4.86 μM, respectively.

B1: Eterna 7684615 (Exclusion - Tryptophan A) (ssRNA)
RNA: AAAAUUGCGGUCGAUAGAACUUUUUGCUUACGAGGACCGGUACGGCCGCCACUCGAGUCAAGUGAUGUUUGAUUUUCUAUUAUUA
The molecule B1 had a Kd in series [3] of more than 3000 nM.

B2: Eterna 7747481 (Same State - Arginine B) (ssRNA)
RNA: GCCGUAGAUUGAAGGAGCGACAUAAACGAUGUUCUGGUAGUGAUGUUACCUUAGCAGGCAUGUCAGGUAGGUCGCAAUCUACGGC
With B2, the Kd in series [3] is more than 3000 nM.

B3: Eterna 7672552 (Same State - Tryptophan A) (ssRNA)
RNA: UAAGAAUAAGUAGCAGUGAUGUUGCUACUACGAGGACCGGUACGGCCGCCACUCGAGUCCUCGAAACAUCACUGAACGAGGAAUA
On to B3, for which the Kd in series [3] is more than 3000 nM.

B4: Eterna 7733368 (Same State - Tryptophan B) (ssRNA)
RNA: GGGUACAUCGCGGCCGCCACUUAUGUAAAUACAUGAGGAUCACCCAUGUCGAUGGAGACAUCGGUAAGGACCGGGUGAUGUACCG
B4: binding in series [4] was characterised by a dissociation constant (Kd) of 19.3 nM.

B5: Eterna 7730944 (Same State - Tryptophan A) (ssRNA)
RNA: UAAAACGCUUGAAUAACAAGCGAAAAUUCGCGAGGACCGGUACGGCCGCCACUCGCUAACUGCGAGUGAUGUUCGAUAAUAAAAU
Molecule B5 displayed an equilibrium dissociation constant (Kd) in series [3] of more than 3000 nM.

B6: Eterna 7684249 (Exclusion - Tryptophan B) (ssRNA)
RNA: UUUAUAAUGUCGGCCGCCACUGGAUUAAUAUUUGUAUAAUCUAGUUCUGAGUGAUGUUUAGAGUCCAGGACCGGGACAUUUGUUA
As for B6, in series [3], the Kd is more than 3000 nM.

B7: Eterna 7623315 (Exclusion - Theophylline A) (ssRNA)
RNA: AUUAUCAUGGUCAUAUAUAUUUCGUCAGAUACCAGACUAGAUAUAGUCCCUUGGCAGCUGUUACAUGAGGAUCACCCAUGUUAUA
Take B7: the affinity in series [5], expressed as Kd, was 45.8 nM.

B8: Eterna 7727988 (Exclusion - Theophylline B) (ssRNA)
RNA: GGGAACUCUUACGAUACCAGCCGGAGUGAUGUUCCGCGCUUGGACGUAGUAACCCGCACCGGCCCUUGGCAGCGUGGAUCUUAUA
B8 had a dissociation constant (Kd) in series [3] of more than 3000 nM.

B9: Eterna 6063666 (Exclusion 4) (ssRNA)
RNA: UAUGUGUCAGGAUAUUGUUAAUUUAGUUGUUUGUAUUAGUUCGAGAAGGGACAUGAGGAUCACCCAUGUUGUUU
Molecule B9 returned a Kd in series [6] of 31.1 nM.

B10: Eterna 6457817 (Inverted Small Loop Same State NG 3) (ssRNA)
RNA: GCGUAAUAGGUGUAGCUAGUCGUUCAAGAAGGGUGAAGAACAUGAGGAUCACCCAUGUGGUCUAUACAGGAUAUUGAUAUACGC
In turn, B10 came in with a Kd in series [3] of 607 nM.

B11: Eterna 6108893 (Exclusion NG 1) (ssRNA)
RNA: GCGUAAAAUGUAGGAUAUGACACAGGAAACUGGUCAGAAGGACAUGAGGAUCACCCAUGUAAAAUGUUCAAGAAUAACUCAUGC
Molecule B11 displayed a Kd in series [3] of 123 nM.

B12: Eterna 6002686 (Brourd's mod of Exclusion 4) (ssRNA)
RNA: UAACAAAUUGUCAGGAUAUCAGUCCCGGCCCAGAUUGAGAAGGGACAUGAGGAUCACCCAUGUAUGAUUCUCAG
Regarding B12, binding in series [3] was characterised by a dissociation constant (Kd) of 93.5 nM.

B13: Eterna 6136258 (Same State NG 2) (ssRNA)
RNA: UAAUCUCAGAUAGGAUAUAUAGGAUAACUUAAGACCUAACAUGAGGAUCACCCAUGUGAUUAUUCGUAGAAGGAUCAUUGACCC
In series [3], B13 yielded a Kd of 162 nM.

B14: Eterna 5956827 (Exclusion NG 2) (ssRNA)
RNA: UUUGUUUUGCAAGGAUAUGUUUAAUUUUAGUUUCCUUACACAUGAGGAUCACCCAUGUUAUACUUACAGAAGGUGCGUAAUUUU
The molecule B14 showed a dissociation constant (Kd) in series [6] of 94 nM.

B15: Eterna 13224 (Sensor for hsa-mir-208a) (ssRNA)
RNA: ACCCAAAGUAUAUGGGAACAAGCUUUUUAACAUGAGGAUCACCCAUGUGCUCGUCUUAUAAGCAGUCGAAAGACUGC
As to B15, the Kd in series [7] turned out to be 17.1 nM.

B16: Eterna 7612216 (Same State - Tryptophan B) (ssRNA)
RNA: GCUAGGUCAUCGGCCGCCACUAACGACGGUUCCAACAUGAGGAUCACCCAUGUGCCACAUGCGCAUAGGACCGGGAUGACCUAGC
As to B16, in series [4], the Kd amounted to 21 nM.

B17: Eterna 5958224 (Same State NG 3) (ssRNA)
RNA: CGAGGCGUACAUGAGGAUCACCCAUGUACCUAACAACAAAGCAAGGAUAUCCUGGCUAUAAUACAGGAGAAGGUGUGGUCCUUA
On to B17, for which the affinity in series [3], expressed as Kd, was 135 nM.

B18: Eterna 11920 (Sensor v3, turn-off variant 2) (ssRNA)
RNA: UUUAAACUUACAAUCUUCGCUGGCAUGCUUGUGCCAGCUACAUGAGGAUCACCCAUGUUUUUUGCUCGUCUUAUUCU
Take B18: the Kd in series [7] is 95 nM.

B19: Eterna 7724662 (Same State - FMN B) (ssRNA)
RNA: GUAUCGCUAGGAGGAUAUUUCAAAUAACAAAUAAAUGGUUAUACGGAGUGAUGUUCCGAUUUACGGAAAGAAGGCCUAGUGAUAC
In turn, B19 returned an equilibrium dissociation constant (Kd) in series [3] of more than 3000 nM.

B20: Eterna 7681766 (Exclusion - Tryptophan A) (ssRNA)
RNA: UGUGAACAAAAGUAGAGUGGACCACUAUAGCGAGGACCGGUACGGCCGCCACUCGUAUAUAAAUUCAGUGAUGUUGAAAAGAGCU
In turn, B20 showed a Kd in series [3] of more than 3000 nM.

B21: Eterna 7691696 (Same State - Theophylline B) (ssRNA)
RNA: UGUCAUUGGUCUGAUACCAGAAGAUAAUCUGGAGUGAUGUUCCAAGUACGACAAAGUCGCUUCCCUUGGCAGCAGACCGAUGACU
In series [3], B21 registered a Kd of more than 3000 nM.

B22: Eterna 1282 (Exclusion - Tryptophan B) (ssRNA)
RNA: GGAUUGCGUUCGGCCGCCACUAGACUACAUUCCACGCCCGACCCGUUUUUAAGUGAUGUUUAAACUAGGACCGGGAACCGAUUUC
In series [3], B22 yielded a Kd of more than 3000 nM.
